Source: patent US20120093805A1

Legend:
[1] = molecular target: human CD27 with normal O-linked sugar chains expressed on CHO/DG44 cells (human) (UniProt P26842); test: flow cytometry (FCM) on CD27/DG44-4 cells [B) (b]
[2] = molecular target: human sugar chain-deficient CD27 expressed on Lec8 cells (human) (UniProt P26842); test: flow cytometry (FCM) on CD27/Lec8-4 cells [A) (b]
[3] = molecular target: cynomolgus CD27 (C-terminal His tag) with normal O-linked sugar chains expressed on CHO/DG44 cells (cynomolgus); test: flow cytometry (FCM) on cynomolgus CD27/DG44 cells; number printed beside the broken bar

Sequence of human sugar chain-deficient CD27 expressed on Lec8 cells (human) (P26842 20-260 H233R limits assumed): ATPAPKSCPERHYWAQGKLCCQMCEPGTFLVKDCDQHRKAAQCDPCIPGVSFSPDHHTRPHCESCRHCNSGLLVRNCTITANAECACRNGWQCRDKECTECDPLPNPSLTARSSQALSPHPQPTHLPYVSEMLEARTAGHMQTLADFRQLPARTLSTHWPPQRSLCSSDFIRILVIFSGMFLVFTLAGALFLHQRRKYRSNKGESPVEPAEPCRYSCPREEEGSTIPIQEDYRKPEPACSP
Sequence of human CD27 with normal O-linked sugar chains expressed on CHO/DG44 cells (human) (P26842 20-260 H233R limits assumed): as above

EC50 (read off the curve) [1]: 0.1 µg/mL
EC50 (read off the curve) [2]: 0.1 µg/mL
Mean Fluorescence Intensity [3]: 133
Substance: Anti-CD27 Antibody (O323)
